In publication PMC8005358 (Science translational medicine, 2019):

Target: the molecule itself
Assay: SDS-PAGE in reducing and non-reducing conditions

B1: recombinant human erythroferrone, wild type (ERFE^WT) (natural protein, UniProt Q4G0M1 29-354, looked up)
chain: SPEPGAPSRSRARREPPPGNELPRGPGESRAGPAARPPEPTAERAHSVDPRDAWMLFVRQSDKGVNGKKRSRGKAKKLKFGLPGPPGPPGPQGPPGPIIPPEALLKEFQLLLKGAVRQRERAEPEPCTCGPAGPVAASLAPVSATAGEDDDDVVGDVLALLAAPLAPGPRAPRVEAAFLCRLRRDALVERRALHELGVYYLPDAEGAFRRGPGLNLTSGQYRAPVAGFYALAATLHVALGEPPRRGPPRPRDHLRLLICIQSRCQRNASLEAIMGLESSSELFTISVNGVLYLQMGQWTSVFLDNASGCSLTVRSGSHFSAVLLGV
How did the “stoichiometry N” value turn out when B1 was run?
Its value is 3.

B2: recombinant human erythroferrone variant with a VPFQ insertion (ERFE^VPFQ) (natural protein, UniProt Q4G0M1 29-354, looked up)
chain: SPEPGAPSRSRARREPPPGNELPRGPGESRAGPAARPPEPTAERAHSVDPRDAWMLFVRQSDKGVNGKKRSRGKAKKLKVPFQFGLPGPPGPPGPQGPPGPIIPPEALLKEFQLLLKGAVRQRERAEPEPCTCGPAGPVAASLAPVSATAGEDDDDVVGDVLALLAAPLAPGPRAPRVEAAFLCRLRRDALVERRALHELGVYYLPDAEGAFRRGPGLNLTSGQYRAPVAGFYALAATLHVALGEPPRRGPPRPRDHLRLLICIQSRCQRNASLEAIMGLESSSELFTISVNGVLYLQMGQWTSVFLDNASGCSLTVRSGSHFSAVLLGV
With B2 as the protein, how does the “stoichiometry N” value read?
Its value is 3.
